Substitutions are numbered along the chain they refer to. Values joined by “and” are separate entries in the source; they are usually repeats but may differ in a detail not shown here. Identical values can stand only once.
B1: 153 MP3 C-terminal DART (bispecific antibody)
chain 1: DKTHTCPPCPAPEAAGAPSVFLFPPKPKDTLMISRTPEVTCVVVDVSHEDPEVKFNWYVDGVEVHNAKTKPREEQYNSTYRVVSVLTVLHQDWLNGKEYKCKVSNKALPAPIEKTISKAKGQPREPQVYTLPPSREEMTKNQVSLWCLVKGFYPSDIAVEWESNGQPENNYKTTPPVLDSDGSFFLYSKLTVDKSRWQQGNVFSCSVMHEALHNHYTQKSLSLSPGKAPSSSPMEQSVLTQPPSVSAAPGQKVTISCSGSSSNIGNNYVSWYQQLPGTAPKLLIYDNNKRPSGIPDRFSGSKSGTSATLGITGLQTGDEADYYCGTWDSSLSGVVFGGGTKLTVLGGGGSGGGGEVQLVESGGGLVQPGGSLRLSCAASGFTFSTYAMNWVRQAPGKGLEWVGRIRSKYNNYATYYADSVKGRFTISRDDSKNSLYLQMNSLKTEDTAVYYCVRHGNFGNSYVSWFAYWGQGTLVTVSSGVEPKSC
chain 2: QAVVTQEPSLTVSPGGTVTLTCRSSTGAVTTSNYANWVQQKPGQAPRGLIGGTNKRAPWTPARFSGSLLGGKAALTITGAQAEDEADYYCALWYSNLWVFGGGTKLTVLGGGGSGGGGEVQLVQSGAEVKKPGASVKVSCKASGYTFTSYGISWVRQAPGQGLEWMGWISAYNGNTNYAQKLQGRVTMTTDTSTSTAYMELRSLRSDDTAVYYCATIDTANAFGIWGQGTMVTVSSGFNRGEC
chain 3: DKTHTCPPCPAPEAAGAPSVFLFPPKPKDTLMISRTPEVTCVVVDVSHEDPEVKFNWYVDGVEVHNAKTKPREEQYNSTYRVVSVLTVLHQDWLNGKEYKCKVSNKALPAPIEKTISKAKGQPREPQVYTLPPSREEMTKNQVSLSCAVKGFYPSDIAVEWESNGQPENNYKTTPPVLDSDGSFFLVSKLTVDKSRWQQGNVFSCSVMHEALHNRYTQKSLSLSPGK
notes: also called C-terminal MP3-DART P-CAD153 VH and VL
B2: 153 MP3 N-terminal DART (bispecific antibody, human IgG1)
chain 1: QSVLTQPPSVSAAPGQKVTISCSGSSSNIGNNYVSWYQQLPGTAPKLLIYDNNKRPSGIPDRFSGSKSGTSATLGITGLQTGDEADYYCGTWDSSLSGVVFGGGTKLTVLGGGGSGGGGEVQLVESGGGLVQPGGSLRLSCAASGFTFSTYAMNWVRQAPGKGLEWVGRIRSKYNNYATYYADSVKGRFTISRDDSKNSLYLQMNSLKTEDTAVYYCVRHGNFGNSYVSWFAYWGQGTLVTVSSGVEPKSCDKTHTCPPCPAPEAAGAPSVFLFPPKPKDTLMISRTPEVTCVVVDVSHEDPEVKFNWYVDGVEVHNAKTKPREEQYNSTYRVVSVLTVLHQDWLNGKEYKCKVSNKALPAPIEKTISKAKGQPREPQVYTLPPSREEMTKNQVSLWCLVKGFYPSDIAVEWESNGQPENNYKTTPPVLDSDGSFFLYSKLTVDKSRWQQGNVFSCSVMHEALHNHYTQKSLSLSPGK
chain 2: B1 chain 2
chain 3: B1 chain 3
B3: 35 EK-DART (bispecific antibody)
chain 1: QSVLTQPPSVSAAPGQKVTISCSGSSSNIGNNYVSWYQQLPGTAPKLLIYDNNKRPSGIPDRFSGSKSGTSATLGITGLQTGDEADYYCGTWDSSLSAVVFGGGTKLTVLGGGSGGGGEVQLVESGGGLVQPGGSLRLSCAASGFTFNTYAMNWVRQAPGKGLEWVARIRSKYNNYATYYADSVKDRFTISRDDSKNSLYLQMNSLKTEDTAVYYCVRHGNFGNSYVSWFAYWGQGTLVTVSSGGCGGGKVAALKEKVAALKEKVAALKEKVAALKE
chain 2: QAVVTQEPSLTVSPGGTVTLTCRSSTGAVTTSNYANWVQQKPGQAPRGLIGGTNKRAPWTPARFSGSLLGGKAALTITGAQAEDEADYYCALWYSNLWVFGGGTKLTVLGGGGSGGGGEVQLVQSGAEVKKPGASVKVSCKASGYTFTSYGISWVRQAPGQGLEWMGWISAYNGNTNYAQKLQGRVTMTTDTSTSTAYMELRSLRSDDTAVYYCATIDTASAFDIWGQGTMVTVSSGGCGGGEVAALEKEVAALEKEVAALEKEVAALEK
notes: also called P-CAD 35 EK-DART (CD3-2); parental 35 EK-DART
B4: 153 EK-DART (bispecific antibody)
chain 1: B3 chain 1 with A98G
chain 2: B3 chain 2 with S221N, D224G
B5: 34 EK-DART (bispecific antibody)
chain 1: B3 chain 1 with L4V, V99W
chain 2: B3 chain 2
notes: also called P-CAD 34 EK-DART (CD3-2)
B6: 33 EK-DART (bispecific antibody)
chain 1: B3 chain 1 with V99Y, G103T, L107V
chain 2: B3 chain 2 with E119Q, V120M, T216L, D218G, T219S, A220G, S221V
notes: CD3 VL x P-CAD VH-E-coil); also called P-CAD 33 EK-DART (CD3-2)
B7: 20 EK-DART (bispecific antibody)
chain 1: AIQMTQSPSSLSASVGDRVTITCRASQSIGKYLNWYQQIPGKAPKLLIYTASTLQTGVPSRFSGSGSGTDFTLTIVSLQPEDFATYYCQQSFNTPRTFGQGTKVEIKGGGSGGGGEVQLVESGGGLVQPGGSLRLSCAASGFTFNTYAMNWVRQAPGKGLEWVARIRSKYNNYATYYADSVKDRFTISRDDSKNSLYLQMNSLKTEDTAVYYCVRHGNFGNSYVSWFAYWGQGTLVTVSSGGCGGGKVAALKEKVAALKEKVAALKEKVAALKE
chain 2: QAVVTQEPSLTVSPGGTVTLTCRSSTGAVTTSNYANWVQQKPGQAPRGLIGGTNKRAPWTPARFSGSLLGGKAALTITGAQAEDEADYYCALWYSNLWVFGGGTKLTVLGGGGSGGGGEVQLVQSGAEVKKPGASVKVSCKASGYTFTGYYMHWVRQAPGQGLEWMGRINPNSGGTNYAQKFQGRVTMTRDTSISTAYMELSRLRSDDTAVYYCAKGSGSGAFDIWGQGTMVTVSSGGCGGGEVAALEKEVAALEKEVAALEKEVAALEK
notes: also called P-CAD 20 EK-DART (CD3-2)
B8: 35 LP-DART (bispecific antibody)
chain 1: QSVLTQPPSVSAAPGQKVTISCSGSSSNIGNNYVSWYQQLPGTAPKLLIYDNNKRPSGIPDRFSGSKSGTSATLGITGLQTGDEADYYCGTWDSSLSAVVFGGGTKLTVLGGGSGGGGEVQLVESGGGLVQPGGSLRLSCAASGFTFSTYAMNWVRQAPGKGLEWVGRIRSKYNNYATYYADSVKGRFTISRDDSKNSLYLQMNSLKTEDTAVYYCVRHGNFGNSYVSWFAYWGQGTLVTVSSGCPPCPAPEAAGAPSVFLFPPKPKDTLMISRTPEVTCVVVDVSHEDPEVKFNWYVDGVEVHNAKTKPREEQYNSTYRVVSVLTVLHQDWLNGKEYKCKVSNKALPAPIEKTISKAKGQPREPQVCTLPPSREEMTKNQVSLWCLVKGFYPSDIAVEWESNGQPENNYKTTPPVLDSDGSFFLYSKLTVDKSRWQQGNVFSCSVMHEALHNHYTQKSLSLSPG
chain 2: QAVVTQEPSLTVSPGGTVTLTCRSSTGAVTTSNYANWVQQKPGQAPRGLIGGTNKRAPWTPARFSGSLLGGKAALTITGAQAEDEADYYCALWYSNLWVFGGGTKLTVLGGGGSGGGGEVQLVQSGAEVKKPGASVKVSCKASGYTFTSYGISWVRQAPGQGLEWMGWISAYNGNTNYAQKLQGRVTMTTDTSTSTAYMELRSLRSDDTAVYYCATIDTASAFDIWGQGTMVTVSSGCPPCPAPEAAGAPSVFLFPPKPKDTLMISRTPEVTCVVVDVSHEDPEVKFNWYVDGVEVHNAKTKPREEQYNSTYRVVSVLTVLHQDWLNGKEYKCKVSNKALPAPIEKTISKAKGQPREPQVYTLPPCREEMTKNQVSLSCAVKGFYPSDIAVEWESNGQPENNYKTTPPVLDSDGSFFLVSKLTVDKSRWQQGNVFSCSVMHEALHNHYTQKSLSLSPG
B9: 30 EK-DART (bispecific antibody)
chain 1: DIVMTQSPLSLPVTLGQPASISCRSSQSLVHSDGNTYLHWFQQRPGQSPRRLIYKVSNRDSGVPDRFSGSGSGTDFTLKISRVEAEDVGVYYCMQGTHWPPLFGQGTKVEIKGGGSGGGGEVQLVESGGGLVQPGGSLRLSCAASGFTFNTYAMNWVRQAPGKGLEWVARIRSKYNNYATYYADSVKDRFTISRDDSKNSLYLQMNSLKTEDTAVYYCVRHGNFGNSYVSWFAYWGQGTLVTVSSGGCGGGKVAALKEKVAALKEKVAALKEKVAALKE
chain 2: QAVVTQEPSLTVSPGGTVTLTCRSSTGAVTTSNYANWVQQKPGQAPRGLIGGTNKRAPWTPARFSGSLLGGKAALTITGAQAEDEADYYCALWYSNLWVFGGGTKLTVLGGGGSGGGGEVQLVESGGGVVQPGRSLRLSCAASGFTFSSYGMHWVRQAPGKGLEWVAVISYDGSNKYYADSVKGRFTISRDNSKNTLYLQMNSLRAEDTAVYYCAKSSSDRTFDYWGQGTLVTVSSGGCGGGEVAALEKEVAALEKEVAALEKEVAALEK
notes: also called P-CAD 30 EK-DART (CD3-2)

Legend:
[1] = target: T1, cynomolgus monkey P-cadherin ECD (cynomolgus monkey); assay: SPR Biacore pH 7.4
T1 construct: extracellular domain; also called cyno P-cadherin ECD; Cyno P-cadherin

[2] = target: T1, cynomolgus monkey P-cadherin ECD; assay: SPR Biacore pH 7.4, average
[3] = target: T1, cynomolgus monkey P-cadherin ECD; assay: SPR Biacore 3000, antigen immobilised
Experimental: (§1) Binding affinity of EK-DART proteins to P-cadherin and CD3 was analyzed by SPR using a BIACORE® 3000 biosensor (GE Healthcare). The antigens huCD3εδ and either human P-cadherin-Fc or human/cynomolgus monkey/murine P-cadherin-ECD were immobilized on the CM-5 sensor chip by amine coupling kit as recommended by the manufacturer. […] All EK-DART proteins in Tables 15 and 16 comprise CD3-2.

[4] = target: T2, human P-cadherin expressed on the cell surface (human, UniProt P22223 108-829); assay: cell-based or functional assay
T2 sequence (P22223 108-829): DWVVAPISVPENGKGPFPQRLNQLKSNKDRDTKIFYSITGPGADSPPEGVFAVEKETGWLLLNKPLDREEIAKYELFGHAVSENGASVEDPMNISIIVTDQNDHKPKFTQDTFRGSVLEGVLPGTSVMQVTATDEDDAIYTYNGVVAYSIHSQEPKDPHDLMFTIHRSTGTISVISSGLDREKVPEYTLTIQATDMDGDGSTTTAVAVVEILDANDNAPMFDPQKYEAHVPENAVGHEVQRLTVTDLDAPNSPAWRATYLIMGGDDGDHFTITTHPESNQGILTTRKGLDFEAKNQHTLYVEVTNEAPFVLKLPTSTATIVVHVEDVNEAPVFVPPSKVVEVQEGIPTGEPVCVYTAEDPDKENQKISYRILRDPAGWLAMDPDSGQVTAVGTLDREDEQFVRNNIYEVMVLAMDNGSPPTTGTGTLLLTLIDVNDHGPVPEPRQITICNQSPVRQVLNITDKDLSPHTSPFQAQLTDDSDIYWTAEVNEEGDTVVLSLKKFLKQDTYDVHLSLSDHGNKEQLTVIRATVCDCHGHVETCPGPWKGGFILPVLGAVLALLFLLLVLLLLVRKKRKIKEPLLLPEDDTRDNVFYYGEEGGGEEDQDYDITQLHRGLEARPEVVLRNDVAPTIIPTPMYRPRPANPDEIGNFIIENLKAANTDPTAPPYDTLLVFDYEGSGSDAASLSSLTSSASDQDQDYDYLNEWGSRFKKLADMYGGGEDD

[5] = target: T3, Hu P-cadherin-Fc (human, UniProt P22223 108-654, limits assumed); assay: ELISA
T3 construct: also called recombinant human P-cadherin-Fc; human P-cadherin-Fc; not shown: Fc
T3 sequence (P22223 108-654 limits assumed): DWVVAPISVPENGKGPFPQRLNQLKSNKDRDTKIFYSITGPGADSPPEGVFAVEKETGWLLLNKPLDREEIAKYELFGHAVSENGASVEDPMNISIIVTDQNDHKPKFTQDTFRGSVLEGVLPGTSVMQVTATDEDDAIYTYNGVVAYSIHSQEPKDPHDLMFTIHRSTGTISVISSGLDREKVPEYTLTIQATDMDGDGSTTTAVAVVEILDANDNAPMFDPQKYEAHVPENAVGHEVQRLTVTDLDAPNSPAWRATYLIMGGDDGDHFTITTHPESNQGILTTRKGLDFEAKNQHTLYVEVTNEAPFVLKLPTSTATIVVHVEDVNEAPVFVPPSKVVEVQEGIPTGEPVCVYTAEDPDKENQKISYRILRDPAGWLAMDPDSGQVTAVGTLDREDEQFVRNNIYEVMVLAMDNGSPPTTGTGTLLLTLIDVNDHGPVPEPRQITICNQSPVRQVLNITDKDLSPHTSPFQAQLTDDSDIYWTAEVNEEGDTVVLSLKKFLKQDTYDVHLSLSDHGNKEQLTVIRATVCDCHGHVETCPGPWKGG

[6] = target: T1, cynomolgus monkey P-cadherin ECD; assay: SPR Biacore
Experimental: as §1
All EK-DART proteins in Table 17 comprise CD3-2.

[7] = target: T1, cynomolgus monkey P-cadherin ECD; assay: SPR
[8] = target: T2, human P-cadherin expressed on the cell …; assay: cell ELISA, H1650 cells
[9] = target: T2, human P-cadherin expressed on the cell …; assay: cell-based or functional assay; remark: listed apart in the source

Binder	Kd [1]	koff [1]	kon [1]	t½ [1]	Kd [2]	Kd [3]	koff [3]	kon [3]	EC50 [5]	EC50 [8]	other results
B1	1.56 nM and 2.11 nM	0.000106 s⁻¹ and 0.000179 s⁻¹	68000 M⁻¹ s⁻¹ and 84600 M⁻¹ s⁻¹	102 min and 60.9 min	1.84 nM						
B2	2.43 nM and 2.78 nM	0.000296 s⁻¹ and 0.000228 s⁻¹	122000 M⁻¹ s⁻¹ and 81900 M⁻¹ s⁻¹	36.8 min and 47.8 min	2.61 nM						
B3						43.4 nM	0.0138 s⁻¹	318000 M⁻¹ s⁻¹	1.92 nM	24.9 nM	T cell Cytotoxicity [4]: 0.33 nM; Kd [6]: 35 nM; koff [6]: 0.0215 s⁻¹; kon [6]: 614000 M⁻¹ s⁻¹; Kd [7]: 42.8 nM
B4	0.403 nM and 0.43 nM	0.000211 s⁻¹ and 0.000222 s⁻¹	524000 M⁻¹ s⁻¹ and 517000 M⁻¹ s⁻¹	51.6 min and 49 min	0.417 nM						Kd [6]: 0.232 nM; koff [6]: 0.000172 s⁻¹; kon [6]: 732000 M⁻¹ s⁻¹
B5						129 nM	0.0833 s⁻¹	705000 M⁻¹ s⁻¹	2.85 nM	68 nM	
B6						46.4 nM	0.0578 s⁻¹	1.15e+06 M⁻¹ s⁻¹	1.8 nM	60.1 nM	
B7						2.03 nM	0.00704 s⁻¹	3.46e+06 M⁻¹ s⁻¹	12.3 nM	~115 nM	
B8											DU145 CTL (LDH) EC50 [9]: 0.0073 nM; HCT116 CTL (Luc) EC50 [9]: 0.107 nM
B9						1.37 nM	0.00648 s⁻¹	4.72e+06 M⁻¹ s⁻¹	3.68 nM	142 nM	

— patent publication US20160002357A1 (Pfizer, published 2016)
